Results reported in the supplement of paper PMC10567573.
± gives the standard deviation.

Experiment: protein stability index of a GFP-peptide fusion (GPS, HEK-293T) (PSI 1-6); higher = more stable
[1] = treatment: DMSO, c terminus: a fixed tail appended
[2] = treatment: MLN4924 1 uM, 8 h, c terminus: a fixed tail appended
[3] = treatment: DMSO, c terminus: native
[4] = treatment: MLN4924 1 uM, 8 h, c terminus: native
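Note: 24-mer peptide tiles fused after GFP, lentivirally expressed, FACS-sorted into six equal bins by GFP/DsRed ratio, decoded by Illumina sequencing, PSI is the read-weighted mean bin number.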

Row | Sequence | protein stability index [1] | protein stability index [2] | protein stability index [3] | protein stability index [4]
1 | LQLKQELAMLNAVTEDLRLKDWEH [SCARA5] | 3.36 ± 0.046 | 3.34 ± 0.24 | – | –
2 | SSELETTSFFDSDEDDSTSRFSSS [DVL3] | 5.4 ± 0.32 | 5.51 ± 0.31 | – | –
3 | IVGFGLYGSIHGPTDYQVNIQIIE [BTBD1] | 2.63 ± 0.4 | 2.6 ± 0.47 | – | –
4 | DVCISILHPPVDDPQSGELPSERW [CDC34] | 3.9 ± 0.28 | 4.01 ± 0.24 | – | –
5 | IQLFEELQELLTHDTKDQSPSRAP [HMOX1] | 3.3 ± 0.29 | 3.61 ± 0.45 | – | –
6 | AYSGNTSNLSYHLEKNHPEEFCEF [ZBED1] | 3.63 ± 0.38 | 3.55 ± 0.48 | – | –
7 | VKQKISPYFKSNDVVCKNQDELRN [FAN1] | 3.84 ± 0.24 | 3.64 ± 0.44 | – | –
8 | SPSYGRSRSRSRSRSRSRSRSNSR [SRSF1] | 5.39 ± 0.47 | 5.43 ± 0.26 | – | –
9 | GQCLDSTDQLEFTVEPRLLVADLL [RTN2] | 2.91 ± 0.2 | 3 ± 0.26 | – | –
10 | GYVSQQGGQRSTPLIIAARNGHAK [FEM1B] | 3.74 ± 0.15 | 3.8 ± 0.34 | – | –
11 | AGLVHVKQCIVAHPVNPPYYIPLV [CRYL1] | 2.46 ± 0.33 | 2.36 ± 0.54 | – | –
12 | RSVQNFRFFASSSLHHTSECTQMD [ALDH8A1] | 3.14 ± 0.24 | 3.29 ± 0.33 | – | –
13 | KVLRRWVDEEWPKRERGDPSRHF [EDARADD] | – | – | 3.21 ± 0.43 | 3.42 ± 0.2
14 | TVNALEIELQAQHSMRNSLESTLA [KRT36] | 3.38 ± 0.31 | 3.38 ± 0.29 | – | –
15 | QQRSKDLESRQRSLEQANRSLQLR [TFE3] | 4.76 ± 0.062 | 4.655 ± 0.041 | – | –
16 | SSESSDAGLCMDSPSPMDPHMAEQ [CDC25B] | 5.675 ± 0.013 | 5.21 ± 0.2 | – | –
17 | IVTLRHVLAAKERRCGELKRKLGL [TPD52L3] | 2.2 ± 0.11 | 2.18 ± 0.13 | – | –
18 | VNNYTNSFGGEWSAPDTMKRYSMY [TRIM29] | 2.32 ± 0.19 | 2.62 ± 0.3 | – | –
19 | AVSAMKCGLLPISPEALSLGEVAY [ADD1] | 2.31 ± 0.3 | 2.41 ± 0.066 | – | –
20 | RAGEQRKRSQSMKSYPSSELRNMC [CLCN6] | 4.29 ± 0.078 | 4.37 ± 0.21 | – | –
21 | ELAFAEDLVLDEEGARAAGLGELG [ESRRA] | 5.24 ± 0.2 | 5.19 ± 0.27 | – | –
22 | PRCKTTKYRNPSLKLMVNVCGHTL [MNAT1] | 2.39 ± 0.18 | 2.31 ± 0.23 | – | –
23 | ASLLPSARLASPLPREEEIVFPEK [ADAMTS4] | 4.7 ± 0.63 | 4.97 ± 0.46 | – | –

Row | Sequence | protein stability index [1] | protein stability index [2] | protein stability index [3] | protein stability index [4]
24 | PCLGHTFNAGIQQAFQLPKLGALL [ZBED1] | 2.36 ± 0.37 | 2.02 ± 0.24 | – | –
25 | EEDNELNLPNLAAAYSSILSSLGE [GCH1] | 3.68 ± 0.31 | 3.73 ± 0.16 | – | –
26 | YPITLYLEKEREKEISDDEAEEEK [HSP90AB1] | 5.01 ± 0.39 | 5.3 ± 0.083 | – | –
27 | TTPIEEVKGLFKSENCPKVISCEF [LARP4] | 2.9 ± 0.2 | 2.82 ± 0.36 | – | –
28 | RRQAVAWLVAMHKAAKLLYESRDQ [ZFYVE21] | 2.29 ± 0.54 | 2.36 ± 0.49 | – | –
29 | DLDLIQSTPFKPLALKTPPRVLTL [MFF] | 2.31 ± 0.3 | 2.36 ± 0.34 | – | –
30 | VLREDQIPRGFPTIDMGPQLKVVE [PTPRD] | 3.898 ± 0.018 | 3.34 ± 1.1 | – | –
31 | MQCPVIAVNSGGPLESIDHSVTGF [ALG2] | 2.83 ± 0.42 | 3.26 ± 0.3 | – | –
32 | VKESGERKVTDSISKSLELCNEIS [DLC1] | 4.52 ± 0.11 | 4.82 ± 0.21 | – | –
33 | ITRVLYEVFIEWGISAKVFGATTN [ZBED1] | 3.15 ± 0.88 | 3.04 ± 0.2 | – | –
34 | VEEQLAQLRCEMEQQNQEYKILLD [KRT17] | 4.75 ± 0.29 | 4.78 ± 0.22 | – | –
35 | SPIKLSPTSPVYRGSSSGPSSPAR [MTUS2] | 4.34 ± 0.21 | 4.39 ± 0.2 | – | –
36 | ICARACNTTLTQYQLLATHVPTVW [RHOBTB1] | 2.52 ± 0.49 | 2.43 ± 0.7 | – | –
37 | KTQIVCKHFLEAIENNKYGWFWVC [ZC3H15] | 2.62 ± 0.52 | 3.09 ± 0.54 | – | –
38 | QEAAERESKLLRDLSAANEKNLLL [LRRC45] | 4.37 ± 0.14 | 4.19 ± 0.13 | – | –
39 | CDYCDRSFQDNLHNRKKHLNGLQH [ZMAT5] | 3.09 ± 0.71 | 3.11 ± 0.38 | – | –
40 | MMRMFSENLAHHLEIDSGVITLDP [TRIM15] | 2.52 ± 0.16 | 2.69 ± 0.37 | – | –
41 | ATGEVLGQFYLDLYPREGKYNHAA [NLN] | 2.91 ± 0.83 | 2.73 ± 0.27 | – | –
42 | STCFERPCFKWYTSPWSECTKTCG [ADAMTSL2] | 2.47 ± 0.64 | 2.75 ± 0.57 | – | –
43 | FTETNNHWPQGPTGPPGPPGPMGP [EMID1] | 2.58 ± 0.28 | 3.4 ± 0.5 | – | –
44 | LTPKGGVRTSYQPSSPGRFTKETT [TRIM29] | 4.17 ± 0.16 | 4.21 ± 0.11 | – | –
45 | MNIIELEIPDQNIDVEALQVAFGS [GMCL1] | 2.86 ± 0.31 | 2.73 ± 0.072 | – | –
46 | VKMDSSIQPGPFRAVLKYLYTGEL [RHOBTB2] | 2.32 ± 0.96 | 2.02 ± 0.45 | – | –

Row | Sequence | protein stability index [1] | protein stability index [2] | protein stability index [3] | protein stability index [4]
47 | LDSIIDDRVILSSSTSCLMPSKLF [CRYL1] | 2.71 ± 0.38 | 2.77 ± 0.21 | – | –
48 | DEEVSGSSKTITAEIPDGPPVVAH [C18orf25] | 5.35 ± 0.25 | 5.41 ± 0.22 | – | –
49 | NDTAGPELPDPLGGLLDEAMLDEI [NFE2L1] | 5.22 ± 0.41 | 5.6 ± 0.13 | – | –
50 | TSLLDLISIPITGDTLRTFSLVLV [DYNC2LI1] | 2.76 ± 0.89 | 2.51 ± 0.57 | – | –
51 | MAPPAAPGRDRVGREDEDGWETRG [HES6] | 5.2 ± 0.37 | 5.48 ± 0.16 | – | –
52 | RWFRSVDWEAVPQRKLKPPIVPKI [PRKX] | 2.33 ± 0.26 | 2.44 ± 0.29 | – | –
53 | QVGAKGDTANEIGQVLHFENVKDV [SERPINB5] | 4.94 ± 0.37 | 5.19 ± 0.24 | – | –
54 | YLIMIFLGLYINFRHLYKQRRRRY [HACD3] | 2.55 ± 0.86 | 2.53 ± 0.63 | – | –
55 | KEGDCAPEEKIWEELSVLEVFEGR [MAGEA6] | 4.96 ± 0.16 | 4.87 ± 0.47 | – | –
56 | TQVLEDSEDSFCRRHPGLGKAFPS [TRAF3IP2] | 4.17 ± 0.35 | 4.12 ± 0.39 | – | –
57 | MAVAFLSAQRSKDPNSQVGACIVN [DCTD] | 2.01 ± 0.16 | 2.27 ± 0.25 | – | –
58 | VDSFQIILDSLLFFYDCSNNPISE [TENT5C] | 3.03 ± 0.14 | 3.14 ± 0.41 | – | –
59 | PEKLIWGDQDPLSKIPFKILSGHE [WDR88] | 3.43 ± 0.85 | 3.45 ± 0.44 | – | –
60 | GHRLAQKLQGLENWGQDPGVSANA [PBXIP1] | 3.82 ± 0.2 | 3.87 ± 0.3 | – | –
61 | EKYKTQIDHYVGIARDQTKSIVEK [RTN3] | 4.07 ± 0.2 | 4.15 ± 0.31 | – | –
62 | TLLNPRMIVDVTPYMNPSPFTVSP [CLCN6] | 2.32 ± 0.079 | 2.25 ± 0.081 | – | –
63 | CRLTHIPAYKVSGDKNEEQVLNAI [ZER1] | 3.5 ± 0.42 | 3.42 ± 0.3 | – | –
64 | NEIQCTGNEKSIIDCKFNAESQGC [LOXL2] | 4.88 ± 0.36 | 4.79 ± 0.58 | – | –
65 | QARKRQEEREKEAAEQAERSQSSI [SMARCE1] | 5.26 ± 0.71 | 5.702 ± 0.038 | – | –
66 | NNADLCLTDDKQVLNTQGQKTSGQ [DLC1] | 5.18 ± 0.27 | 5.16 ± 0.23 | – | –
67 | LKNHFQSVLEQLELQEKQKNEKLI [TAF7L] | 2.82 ± 0.12 | 2.95 ± 0.22 | – | –
68 | DGAWCAGRNDLQQWIEVDARRLTR [CPXM2] | 3.48 ± 0.35 | 3.95 ± 0.52 | – | –
69 | CASDEGEVIVFGGCANNLLVHHRA [KLHDC2] | 2.6 ± 0.35 | 2.27 ± 0.29 | – | –

Row | Sequence | protein stability index [1] | protein stability index [2] | protein stability index [3] | protein stability index [4]
70 | DGLLGDNQIMPKTGFLIIILAIIA [MAGEA6] | 2.86 ± 0.65 | 2.12 ± 0.46 | – | –
71 | QVANSAFVERVRKRGFEVVYMTEP [HSP90AB1] | 2.49 ± 0.4 | 2.64 ± 0.24 | – | –
72 | DIKNPEITTNRFYGPQVNNISHTK [WASL] | 3.19 ± 0.26 | 3.48 ± 0.41 | – | –
73 | ELLSAPPPDLGAQRRHGWNPKDCS [SPSB2] | 3.72 ± 0.14 | 3.48 ± 0.25 | – | –
74 | VIMQVPERIVVAGNNEDVSFSRPA [MFF] | 3.4 ± 0.3 | 3.47 ± 0.6 | – | –
75 | YTGIVLLRCRKEFYQLVWSALPFI [POP5] | 3.12 ± 0.41 | 3.05 ± 0.47 | – | –
76 | GSGSSYVQNGTGNAYEEEANKQS [CNOT7] | – | – | 5.37 ± 0.19 | 5.2 ± 0.23
77 | SNKVQDSAPVETPRGKPPLNTRSQ [HMOX1] | 5.21 ± 0.38 | 5.26 ± 0.27 | – | –
78 | FTGRDSITCLTCQGTGYIPTEQVN [TMEM106C] | 2.66 ± 0.57 | 3.31 ± 0.65 | – | –
79 | HRGHCERRHRLGGVGAVPGPGTPT [ZBTB22] | 4.2 ± 0.26 | 4.36 ± 0.16 | – | –
80 | RYRGLPAPGPSPADKKRSGKKKIS [WAS] | 4.76 ± 0.3 | 4.71 ± 0.21 | – | –
81 | SRKPSLKGNREDSARMSAGLPGPE [PLEKHN1] | 4.85 ± 0.35 | 4.87 ± 0.2 | – | –
82 | VHEVLQAVDAGDPAVEACENRRKV [TCF25] | 5.3 ± 0.22 | 5.35 ± 0.097 | – | –
83 | FQSRLPYQYLHYALFKANRLEKAV [P3H4] | 2.37 ± 0.53 | 2.31 ± 0.56 | – | –
84 | SNIKFCSFHPLQYIGFYGKETTNT [PDS5B] | 2.1 ± 0.47 | 2.29 ± 0.16 | – | –
85 | FRALAPMYYRGSAAAIIVYDITKE [RAB22A] | 2.27 ± 0.36 | 2.16 ± 0.54 | – | –
86 | QLEQVIESQKANQCAVLIYTSGTT [ACSBG2] | 2.52 ± 0.32 | 2.51 ± 0.25 | – | –
87 | NQACKLLSDDYEQVRSAAVQLIWV [INTS4] | 2.62 ± 0.29 | 2.59 ± 0.36 | – | –
88 | EGCELPDLPSSLLLPEDMALRNLP [SMG5] | 4.4 ± 0.1 | 4.49 ± 0.15 | – | –
89 | YTDNSIRPEELLQMELLLVNKLKW [CCND1] | 2.14 ± 0.12 | 2.37 ± 0.29 | – | –
